The target in test [1] is native CLEC-2 on the surface of murine platelets (mouse (endogenous in platelets)) (UniProt Q9JL99).
Test [2] concerns the target T1, recombinant extracellular domain of human CLEC-2 expressed as a dimeric rabbit immunoglobulin Fc domain … (human, UniProt Q9P126 55-229).
T1 construct: CLEC-2, human, extracellular domain; also called hCLEC-2-rFc2; human CLEC-2-rabbit Fc2; source: recombinant, generated as described previously [2]
Put plainly: SPR; hCLEC-2-rFc2 and control rFc2 amine-coupled to a CM5 chip, Biacore X; S100A13 in modified Tyrode's buffer with 1 mM CaCl2 perfused at 20 uL/min, 25 C; control surface subtracted; Kd by BIAevaluation. The note with it: both partners purified.

T1 sequence (Q9P126 55-229): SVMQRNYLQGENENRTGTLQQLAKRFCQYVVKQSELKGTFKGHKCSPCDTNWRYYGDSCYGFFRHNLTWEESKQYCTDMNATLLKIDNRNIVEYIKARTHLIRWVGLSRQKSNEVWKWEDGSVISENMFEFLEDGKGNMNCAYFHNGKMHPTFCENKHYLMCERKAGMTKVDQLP
native CLEC-2 on the surface of murine platelets (mouse (endogenous in platelets)), sequence (Q9JL99 whole entry, the tested form may be a part): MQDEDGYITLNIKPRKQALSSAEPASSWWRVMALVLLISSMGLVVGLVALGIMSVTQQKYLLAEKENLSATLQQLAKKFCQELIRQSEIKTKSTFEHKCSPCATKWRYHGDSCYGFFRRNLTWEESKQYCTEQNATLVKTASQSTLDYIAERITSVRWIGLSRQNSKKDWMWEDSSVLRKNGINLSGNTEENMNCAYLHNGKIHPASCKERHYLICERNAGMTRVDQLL

rhodocytin (complex) had a release of 5-HT or PDGF from washed murine WT platelets, percent of the total stored, maximum concentration of rhodocytin in test [1] of 60%.

B1: GST-tagged S100A13 recombinant protein (natural protein, UniProt Q99584 1-98, looked up)
chain: MAAEPLTELEESIETVVTTFFTFARQEGRKDSLSVNEFKELVTQQLPHLLKDVGSLDEKMKSLDVNQDSELKFNEYWRLIGELAKEIRKKKDLKIRKK
notes: S100A13; also called S100A13-GST; recombinant S100A13-GST; source: bought: CycLex Co., Ltd. (Japan)
In general, Kd refers to the constant that tells how readily two partners part at equilibrium. In the case of B1, in test [2], the Kd was determined as 137 nM.

These data come from article PMC4587843, “Vascular Smooth Muscle Cells Stimulate Platelets and Facilitate Thrombus Formation through Platelet CLEC-2: Implications in Atherothrombosis” (PLoS ONE, 2015).
